In US10975142B2, “Endotrophin neutralization and use thereof” (THE BOARD OF REGENTS OF THE UNIVERSITY OF TEXAS SYSTEM, priority 2013, dated 2021):

B1: 10B6: rat anti-mouse endotrophin monoclonal antibody; light chain variable SEQ ID NO: 2, heavy chain variable SEQ ID NO: 4 (antibody, V domains shown)
VH: QVQLQQSGPELAKPGSSVKISCKASGYTFTSYEMHWIKQRPGQGLEWIGYIYPESGSTGYNEKFKGKATLTVDKSSPTAYMQLSSLTPDNSAVYFCTRGLRVLGYVMDVWGHGTSVTVSS
VL: DVQLTQSPSFLSASVGDRVTINCKASQNINKYLNWYQQKLGEAPKRLIYNTNNLQTGIPSRFSGSASGTDYTLTISSLHPEDFATYFCLQHSSLYTFGAGTKLELK

Assays:
[1] = test system: PyMT mice; test: high dosage cisplatin in PyMT mice; format: in vivo, mouse; settings: cisplatin 2.5 mg/kg, ip. twice a week
Procedure: (§1) FIGS. 20A-20C. Endotrophin overexpression confers cisplatin resistance in PyMT mice. FIG. 20A. 10-weeks-aged PyMT and PyMT/endotrophin (PyMT/ETP) mice were given high dosage of cisplatin (2.5 mg/kg, ip., 2 times/week). Tumor growth was determined by caliper measurements. Data represent mean±SD (n=7-10/group). ***p<0.001, PyMT/CIS vs. PyMT/ETP/CIS by 2-way ANOVA. FIGS. 20B-20C. A piece of tumors taken from PyMT (Ctrl-tumor) and PyMT/endotrophin (ETP^+-tumor) mice were implanted into isogenic wild-type hosts. Cisplatin (1 mg/kg, ip., 2 times/week) were injected at 3-weeks post implantation for tumor progression. Tumor volume was determined by caliper measurement. […] Data represent mean±SD (n=7-8/group). *p<0.05 vs. Ctrl-tumors by 2-way ANOVA. Representative images were taken at 70-days post implantation. Scale: 10 mm.

[2] = test system: PyMT/endotrophin mice; test: high dosage cisplatin in PyMT/endotrophin mice; format: in vivo, mouse; settings: cisplatin 2.5 mg/kg, ip. twice a week
Procedure: as §1

[3] = test system: tumors from PyMT mice; test: allografts of PyMT tumor pieces, cisplatin with TZD or 10B6; format: in vivo; settings: cisplatin 1 mg/kg every 5 days combined with TZD 20 mg/kg or 10B6 100 μg/mouse once a week; 2-months post implantation
Procedure: FIGS. 22A-22E. Neutralizing endotrophin activities with monoclonal antibodies sensitizes tumors to cisplatin treatment. FIG. 22A. Pieces of tumors from PyMT mice were implanted into wild-type hosts. Tumor-bearing mice were given cisplatin (1 mg/kg, ip., every 5 days) or PBS, combined with either TZD (20 mg/kg) or anti-endotrophin monoclonal antibodies (100 μg/mouse, once a week) for tumor progression. Tumor volumes were determined by caliper measurements. Data represent mean±SD (n=5/group). *p<0.05, **p<0.01, ***p<0.001 vs. Cisplatin by 2-way ANOVA. FIGS. 22B-22D. 4T1 (0.5×10^6/mouse) cells were xenografted in nude mice and monitored tumor growth (FIG. 22B) and metastasis (FIG. 22C). […] Tumor volumes were determined by caliper measurements. […] Metastatic burden was determined by measuring metastatic lesion area in lung tissues with H&E stains. Quantified data represent mean±SD (n=5/group). **p=0.0007 and *p=0.0209 vs. CIS/10B6 by unpaired student t-test. mRNA levels for EMT markers such as vimentin, snail, slug, twist1, twist2 and S100S4 were determined by RT-qPCR (FIG. 22D). […]
As a last step, therapeutic potential of a previously described endotrophin neutralizing antibody (clone 10B6) on cisplatin sensitivity was determined. […] Tumor regression was monitored for 2-months post implantation. […]

[4] = test system: diet induced obese (DIO) mice; test: diet induced obese mice, serum and hepatic lipid parameters; format: in vivo, mouse
Procedure: FIGS. 26A-26G: Endotrophin neutralization improves the metabolic phenotype. FIG. 26A. Two cohorts of mice (n=8) were exposed to high fat diet for 45 days after weaning. At the indicated time points (arrowheads), mice were treated with anti-endotrophin monoclonal antibodies (100 µg/mouse) or equivalent amounts of non-immune antibody. Body weights were monitored. FIG. 26B. Plasma Triglycerides and FIG. 26C. plasma free fatty acids (NEFAs) and FIG. 26D. plasma cholesterol were measured. FIG. 26E. Hepatic triglycerides and FIG. 26F. hepatic cholesterol were measured. Significant differences as indicated by unpaired student t-test. FIG. 26G. […] Scale bar=25 μm.
To evaluate the therapeutic potential of endotrophin neutralizing monoclonal antibodies on lipid parameters, a separate cohort of diet induced obese (DIO) mice were chronically treated with either IgG control or 10B6 (rat anti-mouse endotrophin monoclonal antibody) via intraperitoneal injection at 2 weeks after high-fat diet (HFD) challenge and maintained them on a HFD with antibody treatment for another 4 weeks, similar to the experiment described in FIG. 24.

| Molecule | primary tumor growth of PyMT mice [1] | response of PyMT/endotrophin mice to cisplatin treatment [2] | tumor growth / sensitization of the tumors to cisplatin treatment [3] | hepatic cholesterol levels ([4]; 10B6 vs IgG) | levels of hepatic triglycerides ([4]; 10B6 vs IgG) | levels of serum triglyceride ([4]; 10B6 vs IgG) | serum cholesterol levels ([4]; 10B6 vs IgG) | serum free fatty acids ([4]; 10B6 vs IgG) | hepatic lipid accumulation ([4]; H&E stains, 10B6 vs IgG control) |
| --- | --- | --- | --- | --- | --- | --- | --- | --- | --- |
| N.N.[Cl][Pt][Cl] [cisplatin, cis-diammine-dichloro-platinum] | effectively curbed | resistant | – | – | – | – | – | – | – |
| B1 | – | – | efficiently sensitize | comparable | improved | dramatically improved | less affected | dramatically improved | significantly reduced |
